Measurements published in publication PMC5871715.
Like-named read-outs stand apart in the source and are kept apart here.

Assays:
[1] = target: full-length wild-type rat DCC on the cell surface (UniProt Q63155); assay: cell-binding assay; conditions: n = 100 for each group; parent: est. 49; read off a plot
Netrin-1 (Homo sapiens) [2] = target: Netrin-1 (Homo sapiens) (UniProt O95631); conditions: cited from earlier work
Netrin-1 (Homo sapiens) [3] = target: Netrin-1 (Homo sapiens) (UniProt O95631); conditions: cited from earlier work; remark: listed apart in the source

Chain of full-length wild-type rat DCC on the cell surface (Q63155 26-1445): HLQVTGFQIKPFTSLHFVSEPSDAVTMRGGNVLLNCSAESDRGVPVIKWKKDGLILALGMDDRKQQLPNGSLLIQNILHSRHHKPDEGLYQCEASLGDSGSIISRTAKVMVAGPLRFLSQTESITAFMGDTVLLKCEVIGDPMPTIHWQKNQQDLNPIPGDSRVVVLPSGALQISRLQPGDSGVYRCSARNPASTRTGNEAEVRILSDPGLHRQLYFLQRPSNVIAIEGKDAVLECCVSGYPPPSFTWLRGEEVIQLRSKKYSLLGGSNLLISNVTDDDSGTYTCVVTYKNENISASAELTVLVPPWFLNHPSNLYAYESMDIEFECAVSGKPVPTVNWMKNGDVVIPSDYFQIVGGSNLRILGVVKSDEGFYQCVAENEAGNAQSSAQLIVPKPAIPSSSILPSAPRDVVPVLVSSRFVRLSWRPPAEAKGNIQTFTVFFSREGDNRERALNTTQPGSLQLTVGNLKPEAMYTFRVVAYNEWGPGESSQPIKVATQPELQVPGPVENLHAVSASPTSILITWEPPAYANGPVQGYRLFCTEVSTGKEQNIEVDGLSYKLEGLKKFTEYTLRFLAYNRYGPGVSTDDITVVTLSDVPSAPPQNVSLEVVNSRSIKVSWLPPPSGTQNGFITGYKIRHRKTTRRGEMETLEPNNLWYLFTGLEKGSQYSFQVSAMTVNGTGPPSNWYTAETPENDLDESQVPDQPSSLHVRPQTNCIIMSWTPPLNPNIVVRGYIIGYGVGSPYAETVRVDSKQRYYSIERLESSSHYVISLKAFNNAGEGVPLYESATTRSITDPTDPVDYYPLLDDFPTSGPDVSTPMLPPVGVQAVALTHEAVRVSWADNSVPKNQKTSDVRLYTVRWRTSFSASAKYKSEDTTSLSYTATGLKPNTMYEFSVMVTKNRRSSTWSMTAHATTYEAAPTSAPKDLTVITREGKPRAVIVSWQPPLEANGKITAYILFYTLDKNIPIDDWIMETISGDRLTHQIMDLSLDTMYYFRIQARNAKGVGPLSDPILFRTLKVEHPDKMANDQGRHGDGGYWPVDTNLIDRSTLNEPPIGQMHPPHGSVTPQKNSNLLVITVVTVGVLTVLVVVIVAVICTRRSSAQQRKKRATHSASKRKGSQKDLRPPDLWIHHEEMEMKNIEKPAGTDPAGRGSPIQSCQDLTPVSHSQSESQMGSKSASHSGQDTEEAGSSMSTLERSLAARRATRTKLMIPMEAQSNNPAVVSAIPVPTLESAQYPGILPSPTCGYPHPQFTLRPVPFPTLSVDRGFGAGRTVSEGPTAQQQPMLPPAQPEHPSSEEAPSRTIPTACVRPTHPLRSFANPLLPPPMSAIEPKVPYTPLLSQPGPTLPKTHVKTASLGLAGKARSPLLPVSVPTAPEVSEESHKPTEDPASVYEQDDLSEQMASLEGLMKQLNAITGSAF
Chain of DCC Fn5 (P43146 846-942): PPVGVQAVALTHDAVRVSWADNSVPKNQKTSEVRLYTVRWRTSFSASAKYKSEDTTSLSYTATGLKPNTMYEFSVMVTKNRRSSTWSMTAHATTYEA

Question: With wild-type rDraxin-Flag R322A as the substance, how does the response (% positive binding) [1] read?
Answer: 3

Question: For wild-type rDraxin-Flag R322D, which response (% positive binding) [1] is on record?
Answer: 10

Question: For DCC Fn5 (from UniProt P43146), which Kd (Netrin-1 (Homo sapiens) [2]) is on record?
Answer: 5 µM

Question: Which response (% positive binding) [1] does the source give for wild-type rDraxin-Flag R282D here?
Answer: 6

Question: Which Kd (Netrin-1 (Homo sapiens) [3]) does the source give for Draxin (from UniProt Q8NBI3) here?
Answer: 0.01 µM

Question: For wild-type rDraxin-Flag R282A, which response (% positive binding) [1] is on record?
Answer: 59
